{"source": "the RNAGym collection of RNA variant scans (doi:10.1093/molbev/msab373)", "parents": {"B1": {"name": "Azoarcus group I ribozyme (parent)", "chain": "GUGCCUUGCGCCGGGAAACCACGCAAGGGAUGGUGUCAAAUUCGGCGAAACCUAAGCGCCCGCCCGGGCGUAUGGCAACGCCGAGCCAAGCUUCGGCGCCUGCGCCGAUGAAGGUGUAGAGACUAGACGGCACCCACCUAAGGCAAACGCUAUGGUGAAGGCAUAGUCCAGGGAGUGGCGAAAGUCACACAAACCGG"}}, "data": [{"variants_of": "B1", "test": "reverse-splicing fitness (ratio to wild type); higher = more active; in vitro selection; Mg2+ level not given", "outline": "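An in vitro group I ribozyme library with randomized positions was T7-transcribed and gel-purified. In triplicate, 10 pmol RNA in EPPS pH 7.5 was reacted with 50 pmoles of a 30-nt RNA substrate for 1 h at 37 °C across several added MgCl2 levels (1–48 mM), then stopped with EDTA. Products were reverse transcribed from a substrate-complementary primer, PCR-amplified and sequenced (HiSeq 4000). Fitness is a variant's read proportion after selection over that before, normalised to wild type.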", "values": [{"variant": "A145U C150G C169G", "reverse-splicing fitness": 0.0415}, {"variant": "U176A", "reverse-splicing fitness": 0.87}, {"variant": "U176C", "reverse-splicing fitness": 0.815}, {"variant": "U176G", "reverse-splicing fitness": 0.348}, {"variant": "A145U C169A", "reverse-splicing fitness": 0.173}, {"variant": "A145U C169U", "reverse-splicing fitness": 0.407}, {"variant": "A145U C169G", "reverse-splicing fitness": 0.3}, {"variant": "C150G C169U U176C", "reverse-splicing fitness": 0.0326}, {"variant": "C150G C169U U176G", "reverse-splicing fitness": 0.00596}, {"variant": "C150G C169U U176A", "reverse-splicing fitness": 0.0131}, {"variant": "A145U U176G", "reverse-splicing fitness": 0.462}, {"variant": "A145U U176C", "reverse-splicing fitness": 0.911}, {"variant": "A145U U176A", "reverse-splicing fitness": 0.937}, {"variant": "A145U C150U C169U U176G", "reverse-splicing fitness": 0.0111}, {"variant": "A145U C150U C169U U176A", "reverse-splicing fitness": 0.0998}, {"variant": "A145U C150U C169U U176C", "reverse-splicing fitness": 0.141}, {"variant": "C150A C169G U176G", "reverse-splicing fitness": 0.00565}, {"variant": "C150A C169G U176A", "reverse-splicing fitness": 0.026}, {"variant": "C150A C169G U176C", "reverse-splicing fitness": 0.0327}, {"variant": "C150A U176C", "reverse-splicing fitness": 0.398}, {"variant": "C150A U176A", "reverse-splicing fitness": 0.406}, {"variant": "C150A U176G", "reverse-splicing fitness": 0.185}, {"variant": "A145U C150U C169A U176A", "reverse-splicing fitness": 0.0236}, {"variant": "A145U C150U C169A U176G", "reverse-splicing fitness": 0.00551}, {"variant": "A145U C150U C169A U176C", "reverse-splicing fitness": 0.04}, {"variant": "C169U U176C", "reverse-splicing fitness": 0.182}, {"variant": "C169U U176G", "reverse-splicing fitness": 0.0131}, {"variant": "C169U U176A", "reverse-splicing fitness": 0.114}, {"variant": "A145U C150A C169G U176C", "reverse-splicing fitness": 0.0285}, {"variant": "A145U C150A C169G U176A", "reverse-splicing fitness": 0.0176}, {"variant": "A145U C150A C169G U176G", "reverse-splicing fitness": 0.00588}, {"variant": "A145U C150A C169A U176C", "reverse-splicing fitness": 0.0139}, {"variant": "A145U C150A C169A U176G", "reverse-splicing fitness": 0.00528}, {"variant": "A145U C150A C169A U176A", "reverse-splicing fitness": 0.014}, {"variant": "C150G U176C", "reverse-splicing fitness": 0.286}, {"variant": "C150G U176G", "reverse-splicing fitness": 0.0576}, {"variant": "C150G U176A", "reverse-splicing fitness": 0.219}, {"variant": "A145U C150U C169G U176A", "reverse-splicing fitness": 0.0606}, {"variant": "A145U C150U C169G U176C", "reverse-splicing fitness": 0.0907}, {"variant": "A145U C150U C169G U176G", "reverse-splicing fitness": 0.008}, {"variant": "A145U C150G C169U U176C", "reverse-splicing fitness": 0.0406}, {"variant": "A145U C150G C169U U176A", "reverse-splicing fitness": 0.0182}, {"variant": "A145U C150G C169U U176G", "reverse-splicing fitness": 0.00591}, {"variant": "C169U", "reverse-splicing fitness": 0.407}, {"variant": "C169A", "reverse-splicing fitness": 0.18}, {"variant": "C169G", "reverse-splicing fitness": 0.323}, {"variant": "C150U C169U U176G", "reverse-splicing fitness": 0.0109}, {"variant": "C150U C169U U176C", "reverse-splicing fitness": 0.128}, {"variant": "C150U C169U U176A", "reverse-splicing fitness": 0.0877}, {"variant": "C169G U176G", "reverse-splicing fitness": 0.00806}, {"variant": "C169G U176C", "reverse-splicing fitness": 0.137}, {"variant": "C169G U176A", "reverse-splicing fitness": 0.0721}, {"variant": "C150A C169A", "reverse-splicing fitness": 0.0251}, {"variant": "C150A C169U", "reverse-splicing fitness": 0.061}, {"variant": "C150A C169G", "reverse-splicing fitness": 0.0379}, {"variant": "A145G C150U C169U", "reverse-splicing fitness": 0.382}, {"variant": "A145G C169U U176G", "reverse-splicing fitness": 0.0104}, {"variant": "A145G C169U U176A", "reverse-splicing fitness": 0.123}, {"variant": "A145G C169U U176C", "reverse-splicing fitness": 0.174}, {"variant": "C150U C169G U176A", "reverse-splicing fitness": 0.0516}, {"variant": "C150U C169G U176G", "reverse-splicing fitness": 0.0074}, {"variant": "C150U C169G U176C", "reverse-splicing fitness": 0.0925}, {"variant": "A145U C150U U176G", "reverse-splicing fitness": 0.342}, {"variant": "A145U C150U U176C", "reverse-splicing fitness": 0.816}, {"variant": "A145U C150U U176A", "reverse-splicing fitness": 0.908}, {"variant": "C150A C169U U176C", "reverse-splicing fitness": 0.0421}, {"variant": "C150A C169U U176G", "reverse-splicing fitness": 0.00737}, {"variant": "C150A C169U U176A", "reverse-splicing fitness": 0.0369}, {"variant": "A145U C150G C169A U176C", "reverse-splicing fitness": 0.0151}, {"variant": "A145U C150G C169A U176G", "reverse-splicing fitness": 0.00602}, {"variant": "A145U C150G C169A U176A", "reverse-splicing fitness": 0.0122}, {"variant": "C169A U176G", "reverse-splicing fitness": 0.0054}, {"variant": "C169A U176C", "reverse-splicing fitness": 0.0638}, {"variant": "C169A U176A", "reverse-splicing fitness": 0.0336}, {"variant": "A145G C150U C169G U176G", "reverse-splicing fitness": 0.00685}, {"variant": "A145G C150U C169G U176C", "reverse-splicing fitness": 0.11}]}]}
